From article PMC4874178 (Biochemistry, 2015)
Where a chain is given by its changes, count along the chain named. Names may count otherwise. Where two headings read alike, the source gives them in different places.

B1: Staphylococcus aureus strain Newman CstB, wild-type, full-length (enzyme, UniProt G5ELA4 1-444, looked up)
chain: MFFKQFYDNHLSQASYLVGCQRTGEAIIIDPVRDLSKYIEVADSEGLTITQATETHIHADFASGIRDVAKRLNANIYVSGEGEDALGYKNMPSKTQFVKHGDIIQVGNVKLEVLHTPGHTPESISFLLTDLGGGSSVPMGLFSGDFIFVGDIGRPDLLEKSVQIKGSTEISAKQMYESVQNIKNLPDYVQIWPGHGAGSPCGKALGAIPISTIGYEKINNWAFNEIDETKFIESLTSNQPAPPHHFAQMKQVNQFGMNLYQSYDVYPSLDNKRVAFDLRSKEAFHGGHTKGTINIPYNKNFINQIGWYLDFEKDIDLIGDKSTVEKAKHTLQLIGFDKVAGYRLPKSGISTQSVHSADMTGKEEHVLDVRNDEEWNNGHLDQAVNIPHGKLLNENIPFNKEDKIYVHCQSGVRSSIAVGILESKGFENVVNIREGYQDFPESLK
B2: C201S CstB, full-length (enzyme)
chain: B1 chain with C201S
B3: CstB^Rhod (isolated C-terminal rhodanese domain of CstB, residues 347-444) (domain or fragment, Staphylococcus aureus strain Newman, UniProt G5ELA4 347-444, looked up)
chain: SGISTQSVHSADMTGKEEHVLDVRNDEEWNNGHLDQAVNIPHGKLLNENIPFNKEDKIYVHCQSGVRSSIAVGILESKGFENVVNIREGYQDFPESLK

Experiments:
[1] = molecular target: the molecule itself; test: SEC
[2] = molecular target: the molecule itself; test: SEC; remark: listed apart in the source

Row | Protein | stoichiometry N [1] | stoichiometry N [2]
1 | B1 | 4 | 
2 | B2 |  | 4
3 | B3 |  | ~3
